These are literature values, as cited in article PMC4216181 (Journal of nuclear medicine : official publication, Society …, 2009).

The target in this series is HER2 (Homo sapiens, UniProt P04626). The following applies: read-out: dissociation constant [KD]; HER2, nonmodified 2-helix protein; cited from earlier work.

As for “[homoC]NKEMRNRYWEAALDPNLNNQQK-RAKIRSIYDDP[homoC]-NH2 (disulfide) [MUT-DS]”, the equilibrium dissociation constant (Kd) (usually the equilibrium constant for the complex coming apart) is 5 nM.
